Assay results published in publication PMC314469, “Protein Interaction Networks by Proteome Peptide Scanning” (PLoS Biology, 2004).
One block for each binder: values may come before it.

Target: T1, Abp1 SH3 (ABP1_YEAST), P15891
T1 chain: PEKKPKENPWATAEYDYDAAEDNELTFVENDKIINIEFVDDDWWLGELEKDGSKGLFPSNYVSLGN
Experiment: SPOT array

normalised SPOT signal, Boehringer light units (BLU); mean over the file's lines of this peptide: 1740
B1: YOR329C 457-469 (peptide)
chain: MRSHMEQPQSIKP

normalised SPOT signal, Boehringer light units (BLU); mean over the file's lines of this peptide: 60
B2: YOL061W 323-335 (peptide)
chain: LTSGGSLPVSPRP

normalised SPOT signal, Boehringer light units (BLU); mean over the file's lines of this peptide: 109
B3: YOR109W 19-31 (peptide)
chain: LYALVLKPVGKKP

normalised SPOT signal, Boehringer light units (BLU); mean over the file's lines of this peptide: 120
B4: YOL110W 177-189 (peptide)
chain: LWSWVLGPLLSRP

normalised SPOT signal, Boehringer light units (BLU); mean over the file's lines of this peptide: 4270
B5: YDR479C 283-296 (peptide)
chain: LYMDKFIKLIPMRP

normalised SPOT signal, Boehringer light units (BLU); mean over the file's lines of this peptide: 6180
B6: YAL026C 1-13 (peptide)
chain: MNDDRETPPKRKP

normalised SPOT signal, Boehringer light units (BLU); mean over the file's lines of this peptide: 201
B7: YAL024C 1062-1075 (peptide)
chain: MKLEGTYEKIPEKP

normalised SPOT signal, Boehringer light units (BLU); mean over the file's lines of this peptide: 137
B8: YBL069W 153-165 (peptide)
chain: LVDPKVDPILLRP

normalised SPOT signal, Boehringer light units (BLU); mean over the file's lines of this peptide: 273
B9: YBR289W 754-767 (peptide)
chain: LRNTTTYKSRPDRP

normalised SPOT signal, Boehringer light units (BLU); mean over the file's lines of this peptide: 3590
B10: YLR413W 258-270 (peptide)
chain: MQLGSLVPSSLKP

normalised SPOT signal, Boehringer light units (BLU); mean over the file's lines of this peptide: 2660
B11: YOR226C 1-13 (peptide)
chain: MFARLANPAHFKP

normalised SPOT signal, Boehringer light units (BLU); mean over the file's lines of this peptide: 171
B12: YJL005W 199-211 (peptide)
chain: LSTVNPAPANRKP

normalised SPOT signal, Boehringer light units (BLU); mean over the file's lines of this peptide: 322
B13: YDR147W 440-453 (peptide)
chain: LWALLQSGRLPQRP

normalised SPOT signal, Boehringer light units (BLU); mean over the file's lines of this peptide: 48.4
B14: YBR241C 284-296 (peptide)
chain: LWQYVTDPSYKKP

normalised SPOT signal, Boehringer light units (BLU); mean over the file's lines of this peptide: 82.6
B15: YCL008C 171-184 (peptide)
chain: LQQEQNTPPLPPKP

normalised SPOT signal, Boehringer light units (BLU); mean over the file's lines of this peptide: 67.6
B16: YGL003C 218-231 (peptide)
chain: LQSQFFDSMSPVRP

normalised SPOT signal, Boehringer light units (BLU); mean over the file's lines of this peptide: 2220
B17: YDR381W 195-207 (peptide)
chain: MAKSQNKPKREKP

normalised SPOT signal, Boehringer light units (BLU); mean over the file's lines of this peptide: 140
B18: YDR176W 173-185 (peptide)
chain: LQVHRDQPREKRP

normalised SPOT signal, Boehringer light units (BLU); mean over the file's lines of this peptide: 382
B19: YBR083W 422-434 (peptide)
chain: LSKVRGRPMYPRP

normalised SPOT signal, Boehringer light units (BLU); mean over the file's lines of this peptide: 184
B20: YDR405W 164-176 (peptide)
chain: MEEPFIWPEEPRP

normalised SPOT signal, Boehringer light units (BLU); mean over the file's lines of this peptide: 40.3
B21: YBR023C 712-724 (peptide)
chain: MDDFVTPPDEVKP

normalised SPOT signal, Boehringer light units (BLU); mean over the file's lines of this peptide: 59.6
B22: YGR031W 172-184 (peptide)
chain: LVSIENAPVSLRP

normalised SPOT signal, Boehringer light units (BLU); mean over the file's lines of this peptide: 854
B23: YNL068C 392-405 (peptide)
chain: LSLNKAFEKVPRRP

normalised SPOT signal, Boehringer light units (BLU); mean over the file's lines of this peptide: 6660
B24: YDL164C 244-256 (peptide)
chain: MGARNVQPTMFKP

normalised SPOT signal, Boehringer light units (BLU); mean over the file's lines of this peptide: 30
B25: YER136W 199-212 (peptide)
chain: LWTNDDYLQQPARP

normalised SPOT signal, Boehringer light units (BLU); mean over the file's lines of this peptide: 32.6
B26: YOR244W 327-340 (peptide)
chain: LSKKENKVGSPEKP

normalised SPOT signal, Boehringer light units (BLU); mean over the file's lines of this peptide: 524
B27: YFL007W 20-33 (peptide)
chain: LSQLKRFERSPGRP

normalised SPOT signal, Boehringer light units (BLU); mean over the file's lines of this peptide: 117
B28: YOR151C 789-802 (peptide)
chain: MDTMANILYYPQKP

normalised SPOT signal, Boehringer light units (BLU); mean over the file's lines of this peptide: 97.9
B29: YMR205C 179-191 (peptide)
chain: MKTTDTYPSLPKP

normalised SPOT signal, Boehringer light units (BLU); mean over the file's lines of this peptide: 75.9
B30: YBL052C 441-454 (peptide)
chain: LSRKESKFGTPEKP

normalised SPOT signal, Boehringer light units (BLU); mean over the file's lines of this peptide: 111
B31: YAR044W 406-418 (peptide)
chain: LTTNKETPANAKP

normalised SPOT signal, Boehringer light units (BLU); mean over the file's lines of this peptide: 104
B32: YLL031C 923-935 (peptide)
chain: LTLWSQPPDVLKP

normalised SPOT signal, Boehringer light units (BLU); mean over the file's lines of this peptide: 68.5
B33: YDL140C 236-248 (peptide)
chain: LTSLPVPPPPVRP

normalised SPOT signal, Boehringer light units (BLU); mean over the file's lines of this peptide: 54.2
B34: YDR174W 207-219 (peptide)
chain: LQHAAEPPVEKRP

normalised SPOT signal, Boehringer light units (BLU); mean over the file's lines of this peptide: 950
B35: YDR389W 229-241 (peptide)
chain: LYEQFRNPLRSRP

normalised SPOT signal, Boehringer light units (BLU); mean over the file's lines of this peptide: 40.5
B36: YOL003C 52-65 (peptide)
chain: LSYYLAISTNPGRP

normalised SPOT signal, Boehringer light units (BLU); mean over the file's lines of this peptide: 150
B37: YLR152C 193-205 (peptide)
chain: LTEITKLPNITRP

normalised SPOT signal, Boehringer light units (BLU); mean over the file's lines of this peptide: 25.4
B38: YIR006C 225-238 (peptide)
chain: LQPQNQAPLEPLKP

normalised SPOT signal, Boehringer light units (BLU); mean over the file's lines of this peptide: 105
B39: YKL152C 212-225 (peptide)
chain: LVFELDENLKPSKP

normalised SPOT signal, Boehringer light units (BLU); mean over the file's lines of this peptide: 538
B40: YHR120W 1-13 (peptide)
chain: MKHFFRLPTAFRP

normalised SPOT signal, Boehringer light units (BLU); mean over the file's lines of this peptide: 144
B41: YPR107C 19-32 (peptide)
chain: LRQEYSFSLDPDRP

normalised SPOT signal, Boehringer light units (BLU); mean over the file's lines of this peptide: 308
B42: YCL037C 234-246 (peptide)
chain: MPQNQGFPPQFKP

normalised SPOT signal, Boehringer light units (BLU); mean over the file's lines of this peptide: 1040
B43: YOL028C 50-62 (peptide)
chain: LSKNWELPQRLKP

normalised SPOT signal, Boehringer light units (BLU); mean over the file's lines of this peptide: 119
B44: YOR086C 1-14 (peptide)
chain: MAKEDTGVTAPKKP

normalised SPOT signal, Boehringer light units (BLU); mean over the file's lines of this peptide: 57.7
B45: YDR093W 1465-1478 (peptide)
chain: LYPQGYDPTDPSRP

normalised SPOT signal, Boehringer light units (BLU); mean over the file's lines of this peptide: 1070
B46: YPR065W 1-13 (peptide)
chain: MNPKSSTPKIPRP

normalised SPOT signal, Boehringer light units (BLU); mean over the file's lines of this peptide: 100
B47: YKL209C 357-370 (peptide)
chain: LTFANVSFSYPSRP

normalised SPOT signal, Boehringer light units (BLU); mean over the file's lines of this peptide: 631
B48: YHR168W 311-323 (peptide)
chain: LTNLIRNPRFSKP

normalised SPOT signal, Boehringer light units (BLU); mean over the file's lines of this peptide: 63.4
B49: YOR093C 939-952 (peptide)
chain: MIEPAYRNGGPVKP

normalised SPOT signal, Boehringer light units (BLU); mean over the file's lines of this peptide: 25
B50: YPL074W 405-417 (peptide)
chain: LVSATAVPAESKP

normalised SPOT signal, Boehringer light units (BLU); mean over the file's lines of this peptide: 68
B51: YKL095W 108-121 (peptide)
chain: MEVGGVRNYVPQKP

normalised SPOT signal, Boehringer light units (BLU); mean over the file's lines of this peptide: 9140
B52: YNL105W 40-53 (peptide)
chain: MNIRPSISMRPIKP

normalised SPOT signal, Boehringer light units (BLU); mean over the file's lines of this peptide: 450
B53: YKL101W 858-870 (peptide)
chain: LQKKNDRPSPLKP

normalised SPOT signal, Boehringer light units (BLU); mean over the file's lines of this peptide: 310
B54: YLL043W 81-93 (peptide)
chain: MQDYRPSPQSARP

normalised SPOT signal, Boehringer light units (BLU); mean over the file's lines of this peptide: 93.7
B55: YAL054C 478-491 (peptide)
chain: LVTPLAGGVTPMKP

normalised SPOT signal, Boehringer light units (BLU); mean over the file's lines of this peptide: 452
B56: YOR081C 655-668 (peptide)
chain: LRLKKSPLKVPSRP

normalised SPOT signal, Boehringer light units (BLU); mean over the file's lines of this peptide: 2480
B57: YNL013C 89-101 (peptide)
chain: MARGSHFPILNRP

normalised SPOT signal, Boehringer light units (BLU); mean over the file's lines of this peptide: 29.7
B58: YLR129W 775-788 (peptide)
chain: LWQRKKLGEAPIKP

normalised SPOT signal, Boehringer light units (BLU); mean over the file's lines of this peptide: 171
B59: YMR156C 126-139 (peptide)
chain: LSHRLWLYAAPKRP
